Measured values reported in patent publication US20240390512A1, “METHODS OF TREATING CHEMOTHERAPY-RESISTANT CANCER WITH AN ANTIBODY-DRUG CONJUGATE” (DAIICHI SANKYO COMPANY, LIMITED, priority 2021, published 2024).
Changes are numbered by the printed parent chain.

T1: human CDH6 (full-length and EC domain deletion mutants) (Homo sapiens, UniProt P55285)
T1 construct: each one of the five EC domains could be deleted from full-length human CDH6; 3xFLAG (deletion mutants only, from the vector p3×FLAG-CMV-9); expressed in transfected cells; host or cells: 293α cells
T1 sequence (P55285 54-790): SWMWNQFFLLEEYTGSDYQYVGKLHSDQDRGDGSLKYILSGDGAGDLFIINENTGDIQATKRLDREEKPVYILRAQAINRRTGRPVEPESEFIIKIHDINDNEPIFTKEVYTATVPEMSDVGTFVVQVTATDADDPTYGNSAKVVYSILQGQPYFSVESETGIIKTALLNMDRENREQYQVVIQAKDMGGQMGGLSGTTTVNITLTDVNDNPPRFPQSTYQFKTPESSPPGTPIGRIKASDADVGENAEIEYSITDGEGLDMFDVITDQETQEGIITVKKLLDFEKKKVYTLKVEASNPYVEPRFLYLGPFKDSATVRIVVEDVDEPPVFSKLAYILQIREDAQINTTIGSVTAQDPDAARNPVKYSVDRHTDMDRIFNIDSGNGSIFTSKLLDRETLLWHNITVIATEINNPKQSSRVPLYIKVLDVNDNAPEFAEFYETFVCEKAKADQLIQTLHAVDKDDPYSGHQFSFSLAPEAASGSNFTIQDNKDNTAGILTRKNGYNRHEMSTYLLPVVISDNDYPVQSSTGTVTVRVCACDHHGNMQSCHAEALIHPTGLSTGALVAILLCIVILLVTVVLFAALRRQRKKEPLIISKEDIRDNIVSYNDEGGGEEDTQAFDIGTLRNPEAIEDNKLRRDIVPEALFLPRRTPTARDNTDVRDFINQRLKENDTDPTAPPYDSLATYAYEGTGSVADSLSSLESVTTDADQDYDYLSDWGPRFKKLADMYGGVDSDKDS

T2: human CDH6 (full-length and EC domain deletion mutants) (Homo sapiens, UniProt P55285, DEL384-486)
T2 construct: each one of the five EC domains could be deleted from full-length human CDH6; 3xFLAG (deletion mutants only, from the vector p3×FLAG-CMV-9); expressed in transfected cells; host or cells: 293α cells
T2 sequence (P55285 with tags, fused parts or gaps DEL384-486): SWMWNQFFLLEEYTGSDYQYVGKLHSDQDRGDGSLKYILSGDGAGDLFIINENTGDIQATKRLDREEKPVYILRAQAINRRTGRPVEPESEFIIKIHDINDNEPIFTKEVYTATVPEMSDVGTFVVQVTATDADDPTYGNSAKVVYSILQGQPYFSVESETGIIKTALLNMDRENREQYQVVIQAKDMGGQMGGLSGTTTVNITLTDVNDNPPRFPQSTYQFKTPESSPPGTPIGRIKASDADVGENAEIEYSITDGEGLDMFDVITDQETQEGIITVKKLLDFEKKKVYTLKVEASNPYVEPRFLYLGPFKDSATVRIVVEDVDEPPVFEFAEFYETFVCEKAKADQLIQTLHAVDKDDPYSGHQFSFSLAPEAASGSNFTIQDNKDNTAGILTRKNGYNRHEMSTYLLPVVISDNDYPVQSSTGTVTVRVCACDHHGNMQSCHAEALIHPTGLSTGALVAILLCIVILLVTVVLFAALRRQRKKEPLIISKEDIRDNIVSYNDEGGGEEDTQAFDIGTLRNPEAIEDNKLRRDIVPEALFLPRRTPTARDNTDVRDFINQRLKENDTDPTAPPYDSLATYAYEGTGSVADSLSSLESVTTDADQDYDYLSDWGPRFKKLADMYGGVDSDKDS

B1: rG019: rat anti-human CDH6 monoclonal antibody produced by hybridoma rG019; variable regions SEQ ID NO: 10 and 15 (antibody, listed as Rattus norvegicus, V domains shown)
VL: DIQMTQSPSLLSASVGDRVTLNCKASQNIYKNLAWYQQKLGEGPKLLIYDANTLQTGIPSRFSGSGSGSDFTLTISSLQPEDVATYFCQQYYSGWAFGGVTNLELKRA
VH: QVQLQQSGAELVKPGSSVKISCKASGYTFTRNFMHWIKQQPGNGLEWIGWIYCGDGETEYNQKFNGKATLTADRSSSTAYMELSRLTSEDSAVYFCARGVYGGFAGGYFDFWGQGVMVTVSS
B2: rG055: rat anti-human CDH6 monoclonal antibody produced by hybridoma rG055; variable regions SEQ ID NO: 20 and 25 (antibody, listed as Rattus norvegicus, V domains shown)
VL: DVQMTHSPSYLAASPGESVSISCKTSKNISNYLVWYQQKPGEAYKLLIYSGSTLQSGTPSRFSGSGSGTDFTLTIRSLEPEDFGLYFCQQYYEKPFTFGSGTKLEIKRA
VH: EVQLQESGPGLVRPSQSLSLSCSVTDYSITSNYWGWIRRFPGNKMEWMGYITYSGYTSYNPSLQSRISITRDTSKNQFFLQLNSVTAEDTATYYCARSINHGGYSYVVDAWGPGASVTVSS
B3: rG056: rat anti-human CDH6 monoclonal antibody produced by hybridoma rG056; variable regions SEQ ID NO: 30 and 35 (antibody, listed as Rattus norvegicus, V domains shown)
VL: DVQMTQSPSSLAASPGESVSISCRATKSIGIYLAWYQQKPGKTFKLLIYSGSTLQSGTPSRFSGSGSGTDFTLTIRSLEPEDFGLYFCQQFYENPFTFGSGTKLEIRRA
VH: EVQLQESGPGLVKPSQSLSLTCSVTDYSITTYFWGWIRKFPGNKMEWMGYMSYRGGTSYNPSLKSRISITRDTSKNQFFLQLNSVTTEDTATYYCARCPNYGGHSLVFDYWGQGVMVTVSS
B4: rG061: rat anti-human CDH6 monoclonal antibody produced by hybridoma rG061; variable regions SEQ ID NO: 40 and 45 (antibody, listed as Rattus norvegicus, V domains shown)
VL: B2 VL with H6Q, T25A, S26T, N28S, V34A, L46V, F87S, F96L
VH: EVQLQESGPGLVKPSQSLSLTCSVTGYSITTYYWGWIRKFPGNKMEWMGYISYSGRTSYNPSLKSRMSITRDASKNQFFLQLNSVTTDDTATYYCARSPINHGGYWYFDFWGPGTMVTVSS

These molecules were tested against T1, human CDH6 (full-length and EC domain deletion mutants) (assay: Epitope analysis of rat anti-CDH6 antibody by flow cytometry using domain deletion mutants). Conditions: flow cytometry; transfected 293α cells; antibody 20 nM.
Type: binding
Description: (§1) The full-length extracellular region of human CDH6 has five extracellular domains, EC1 (SEQ ID NO: 2), EC2 (SEQ ID NO: 3), EC3 (SEQ ID NO: 4), EC4 (SEQ ID NO: 5), and EC5 (SEQ ID NO: 6). A gene to be expressed such that each one of the five EC domains could be deleted from full-length human CDH6 was synthesized by GeneArt, and incorporated into p3×FLAG-CMV-9 vectors for mammalian expression (Sigma-Aldrich Co. LLC) according to a method known to a person skilled in the art in order to produce an expression vector for each domain deletion mutant lacking any one of EC1 to EC5.
(§2) The epitopes to which the rat anti-human CDH6 antibodies bound were identified by flow cytometry analysis using a 293α cell line transfected with each EC domain deletion vector. Using Lipofectamine 2000 (Thermo Fisher Scientific Inc.), each domain deletion mutant expression vector produced in Reference Example 2)-2-1, or pcDNA3.1-hCDH6 for the expression of full-length human CDH6 was transiently introduced into a 293α cell line, which was a cell line derived from HEK293 cells by stable transfection with integrin αv and integrin […] expression vectors. The cells were cultured overnight under conditions of 37° C. and 5% CO2, and thereafter, a cell suspension was prepared. The suspension of the transfected 293α cells was centrifuged, and a supernatant was then removed. Thereafter, the cells were suspended by the addition of each of the 4 rat anti-CDH6 monoclonal antibodies (clone Nos: rG019, rG055, rG056 and rG061), which had been prepared in Reference Example 1)-7, or rat IgG control (R&D Systems, Inc.) (final concentration: 20 nM). The cells were left standing at 4° C. for 1 hour. The cells were washed twice with PBS supplemented with 5% FBS, and then suspended by the addition of Anti-Rat IgG (whole molecule)-FITC antibody produced in rabbit (Sigma-Aldrich Co. LLC) that had been 50-fold diluted with PBS supplemented with 5% FBS. The cells were left standing at 4° C. for 1 hour. The cells were washed twice with PBS supplemented with 5% FBS, followed by detection using a flow cytometer (Canto II; BD Biosciences). The data was analyzed using FlowJo (Tree Star, Inc.). In the histograms of FIGS. 2-1 to 2-6, the abscissa depicts FITC fluorescence intensity indicating the amount of the antibody bound, and the ordinate depicts cell count. […] Fluorescence intensity is enhanced when the antibody binds to full-length hCDH6 or each EC domain deletion mutant on the surface of cells. The rat IgG control binds to none of the transfected cells.

Binding to full-length hCDH6, bind:
B1, B2, B3, B4

Same assay, conditions: from domain deletion mutant binding

Epitope on hCDH6, EC3:
B1, B2, B3, B4

The molecules below were run against T2, human CDH6 (full-length and EC domain deletion mutants) in the same assay as above. Conditions: flow cytometry; transfected 293α cells; antibody 20 nM.
Type: binding
Description: as §1, §2

Binding to EC4 deletion mutant, bind:
B1, B2, B3, B4
